Laboratory results taken from article PMC10842378.

Columns and labels:
[1] = biological target: FLAG-AP-DHX15 wild type (human) (UniProt O43143); experiment: proximity labelling
[2] = biological target: FLAG-AP-DHX15 wild type (human) (UniProt O43143); experiment: split reporter

FLAG-AP-DHX15 wild type (human), sequence (O43143 whole entry): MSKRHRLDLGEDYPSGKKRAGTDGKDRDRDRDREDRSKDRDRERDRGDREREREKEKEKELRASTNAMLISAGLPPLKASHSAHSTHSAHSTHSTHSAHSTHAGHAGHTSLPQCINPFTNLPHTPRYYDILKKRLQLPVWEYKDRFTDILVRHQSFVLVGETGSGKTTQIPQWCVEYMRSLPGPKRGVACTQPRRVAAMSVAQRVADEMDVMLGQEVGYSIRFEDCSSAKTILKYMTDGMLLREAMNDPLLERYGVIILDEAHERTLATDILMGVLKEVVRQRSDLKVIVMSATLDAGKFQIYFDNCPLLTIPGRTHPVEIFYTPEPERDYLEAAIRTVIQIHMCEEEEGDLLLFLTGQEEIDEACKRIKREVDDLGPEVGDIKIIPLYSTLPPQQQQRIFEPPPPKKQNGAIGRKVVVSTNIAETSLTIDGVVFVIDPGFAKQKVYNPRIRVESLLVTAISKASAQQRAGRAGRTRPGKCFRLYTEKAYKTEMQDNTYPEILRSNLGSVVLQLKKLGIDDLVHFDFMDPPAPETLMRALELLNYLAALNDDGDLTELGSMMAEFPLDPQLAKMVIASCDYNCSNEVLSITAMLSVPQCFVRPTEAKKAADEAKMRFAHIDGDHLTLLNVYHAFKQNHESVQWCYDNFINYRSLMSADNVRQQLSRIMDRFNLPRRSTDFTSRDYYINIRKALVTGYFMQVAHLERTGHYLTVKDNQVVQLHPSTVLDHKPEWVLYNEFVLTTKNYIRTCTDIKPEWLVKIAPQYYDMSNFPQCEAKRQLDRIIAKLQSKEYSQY

fold increase of HA-SUGP1-EX pull-down [1] [fold] | fold increase of total biotinylated protein against FL SUGP1 [2] [fold] | Substance
1.9 |  | HA-SUGP1-EX with the G-patch domain deleted (ΔGp) (from UniProt Q8IWZ8 1-645) (natural protein)
 | 3.2 | SUGP1 G-patch domain alone fused to an SV40 NLS (Gp-nls), HA-EX construct (domain or fragment)
